IC50 data for one substance are collected here from US20230002478A1.

The target in the experiment is biotinylated D614G SARS-CoV-2 spike trimer (SARS-CoV-2) (UniProt P0DTC2). Put plainly: AlphaLISA, inhibition of ACE2-muFc / biotinylated spike complex.

pIC50: −log10 of the molar value.

“anti-RBD neutralizing monoclonal antibody (human IgG1) from Acro Biosystems (SAD-S35)” had a negative logarithm of the IC50 (pIC50) of 8.74.
